Positions count from the first letter of the chain named.
What was measured:
[1] = molecular target: T1, KRAS Q61H peptide on HLA-A*01:01 (human); assay: IFNγ ELISPOT; peptide titration (1 µM to 0.1 nM) on HLA-A*01:01-transfected K562; full-length, on cells
T1 peptide: ILDTAGHEEY

[2] = molecular target: T2, NY-ESO-1 peptide on HLA-B*35:03 (human); assay: killing
T2 peptide: MPFATPMEAEL

[3] = molecular target: T3, NY-ESO-1 peptide on HLA-B*35:03 (human); assay: killing
T3 peptide: MPFATPMEA

[4] = molecular target: T4, MAGE-A3 peptide on HLA-DRB1*13:02 (human); assay: cytokine release
T4 peptide: TSYVKVLHHMVKISG

[5] = molecular target: T5, MAGE-A3 peptide on HLA-DRB1*11:01 (human); assay: cytokine release
T5 peptide: TSYVKVLHHMVKISG

[6] = molecular target: T6, MAGE-A3 peptide on HLA-A*01:01 (human); assay: multimer staining
T6 peptide: EVDPIGHLY

[7] = molecular target: T7, NY-ESO-1 peptide on HLA-C*03:04 (human); assay: multimer staining
T7 peptide: FATPMEAEL

[8] = molecular target: NY-ESO-1 peptide on HLA-B*40:01 (human); assay: killing
[9] = molecular target: T6, MAGE-A3 peptide on HLA-A*01:01; assay: cytokine release
[10] = molecular target: T8, NY-ESO-1 peptide on HLA-A*02:01 (human); assay: killing
T8 peptide: SLLMWITQC

B1: TCRCD8-EL8-LM7 #1 (TCR, V domains shown)
Valpha: AQKITQTQPGMFVQEKEAVTLDCTYDTSDPSYGLFWYKQPSSGEMIFLIYQGSYDQQNATEGRYSLNFQKARKSANLVISASQLGDSAMYFCAMREGQDSSYKLIFGSGTRLLVRP
Vbeta: DSGVTQTPKHLITATGQRVTLRCSPRSGDLSVYWYQQSLDQGLQFLIQYYNGEERAKGNILERFSAQQFPDLHSELNLSSLELGDSALYFCASSVLGPNTEAFFGQGTRLTVV
[1]
  minimal recognised peptide concentration: 10 nM

B2: TCRCD8-EL8-LM7 #4 (TCR, V domains shown)
Valpha: AQKVTQAQTEISVVEKEDVTLDCVYETRDTTYYLFWYKQPPSGELVFLIRRNSFDEQNEISGRYSWNFQKSTSSFNFTITASQVVDSAVYFCALSNAGGTSYGKLTFGQGTILTVHP
Vbeta: EAQVTQNPRYLITVTGKKLTVTCSQNMNHEYMSWYRQDPGLGLRQIYYSMNVEVTDKGDVPEGYKVSRKEKRNFPLILESPSPNQTSLYFCASSRRLPPPYGYTFGSGTRLTVV
[1]
  minimal recognised peptide concentration: 10 nM

B3: TCRCD8-EL8-LM7 #7 (TCR, V domains shown)
Valpha: AQKVTQAQTEISVVEKEDVTLDCVYETRDTTYYLFWYKQPPSGELVFLIRRNSFDEQNEISGRYSWNFQKSTSSFNFTITASQVVDSAVYFCALSESSNTGKLIFGQGTTLQVKP
Vbeta: B2 Vbeta with L97E
[1]
  minimal recognised peptide concentration: 10 nM

B4: TCRCD8-NY#99 (TCR, V domains shown)
Valpha: KQEVTQIPAALSVPEGENLVLNCSFTDSAIYNLQWFRQDPGKGLTSLLLIQSSQREQTSGRLNASLDKSSGRSTLYIAASQPGDSATYLCAPNDYKLSFGAGTTVTVRA
Vbeta: KAGVTQTPRYLIKTRGQQVTLSCSPISGHRSVSWYQQTPGQGLQFLFEYFSETQRNKGNFPGRFSGRQFSNSRSEMNVSTLELGDSALYLCASSFSSDNEQFFGPGTRLTVL
[2]
  binding result: recognises

B5: TCRCD8-NY#100 (TCR, V domains shown)
Valpha: SQQGEEDPQALSIQEGENATMNCSYKTSINNLQWYRQNSGRGLVHLILIRSNEREKHSGRLRVTLDTSKKSSSLLITASRAADTASYFCATDSNDYKLSFGAGTTVTVRA
Vbeta: GAGVSQSPRYKVTKRGQDVALRCDPISGHVSLYWYRQALGQGPEFLTYFNYEAQQDKSGLPNDRFSAERPEGSISTLTIQRTEQRDSAMYRCASSWGGELFFGEGSRLTVL
[2]
  binding result: recognises

B6: TCRCD8-NY#101 (TCR, V domains shown)
Valpha: AQTVTQSQPEMSVQEAETVTLSCTYDTSESDYYLFWYKQPPSRQMILVIRQEAYKQQNATENRFSVNFQKAAKSFSLKISDSQLGDAAMYFCAYRSDAGGTSYGKLTFGQGTILTVHP
Vbeta: ETGVTQSPTHLIKTRGQQVTLRCSSQSGHNTVSWYQQALGQGPQFIFQYYREEENGRGNFPPRFSGLQFPNYSSELNVNALELDDSALYLCASSPRTGGAGNTIYFGEGSWLTVV
[3]
  binding result: recognises

B7: TCRCD8-NY#102 (TCR, V domains shown)
Valpha: AQSVAQPEDQVNVAEGNPLTVKCTYSVSGNPYLFWYVQYPNRGLQFLLKYITGDNLVKGSYGFEAEFNKSQTSFHLKKPSALVSDSALYFCAVRDIEVVNAGNMLTFGGGTRLMVKP
Vbeta: ETGVTQSPTHLIKTRGQQVTLRCSSQSGHNTVSWYQQALGQGPQFIFQYYREEENGRGNFPPRFSGLQFPNYSSELNVNALELDDSALYLCASTDRVRYEQFFGPGTRLTVL
[2]
  binding result: recognises

B8: TCRCD4-MA3#5 (TCR, V domains shown)
Valpha: AQSVTQLGSHVSVSEGALVLLRCNYSSSVPPYLFWYVQYPNQGLQLLLKYTSAATLVKGINGFEAEFKKSETSFHLTKPSAHMSDAAEYFCAVSDGGATNKLIFGTGTLLAVQP
Vbeta: DGGITQSPKYLFRKEGQNVTLSCEQNLNHDAMYWYRQDPGQGLRLIYYSQIVNDFQKGDIAEGYSVSREKKESFPLTVTSAQKNPTAFYLCASSSGGRASFTQYFGPGTRLTVL
[4]
  binding result: recognises

B9: TCRCD4-MA3#9 (TCR, V domains shown)
Valpha: GNSVTQMEGPVTLSEEAFLTINCTYTATGYPSLFWYVQYPGEGLQLLLKATKADDKGSNKGFEATYRKETTSFHLEKGSVQVSDSAVYFCALSDPNNQGGKLIFGQGTELSVKP
Vbeta: DTAVSQTPKYLVTQMGNDKSIKCEQNLGHDTMYWYKQDSKKFLKIMFSYNNKELIINETVPNRFSPKSPDKAHLNLHINSLELGDSAVYFCASSQVRGTTEAFFGQGTRLTVV
[5]
  binding result: recognises

B10: TCRCD8-MA3#7 (TCR, V domains shown)
Valpha: ELKVEQNPLFLSMQEGKNYTIYCNYSTTSDRLYWYRQDPGKSLESLFVLLSNGAVKQEGRLMASLDTKARLSTLHITAAVHDLSATYFCAEPNTDKLIFGTGTRLQVFP
Vbeta: DAMVIQNPRYQVTQFGKPVTLSCSQTLNHNVMYWYQQKSSQAPKLLFHYYDKDFNNEADTPDNFQSRRPNTSFCFLDIRSPGLGDTAMYLCATNYDRGYEQYFGPGTRLTVT
[6]
  binding result: recognises

B11: TCRCD8-MA3#8 (TCR, V domains shown)
Valpha: QKEVEQNSGPLSVPEGAIASLNCTYSDRGSQSFFWYRQYSGKSPELIMFIYSNGDKEDGRFTAQLNKASQYVSLLIRDSQPSDSATYLCAVWATGNQFYFGTGTSLTVIP
Vbeta: B10 Vbeta with N94S, Y95F
[6]
  binding result: recognises

B12: TCRCD8-MA3#10 (TCR, V domains shown)
Valpha: RKEVEQDPGPFNVPEGATVAFNCTYSNSASQSFFWYRQDCRKEPKLLMSVYSSGNEDGRFTAQLNRASQYISLLIRDSKLSDSATYLCVVNERNSGYALNFGKGTSLLVTP
Vbeta: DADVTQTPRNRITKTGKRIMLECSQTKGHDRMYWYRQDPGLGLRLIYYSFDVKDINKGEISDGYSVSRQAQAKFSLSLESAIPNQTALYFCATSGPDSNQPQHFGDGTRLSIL
[6]
  binding result: recognises

B13: TCRCD8-53-02-NY #107 (TCR, V domains shown)
Valpha: GQNIDQPTEMTATEGAIVQINCTYQTSGFNGLFWYQQHAGEAPTFLSYNVLDGLEEKGRFSSFLSRSKGYSYLLLKELQMKDSASYLCAVRLGDAGNMLTFGGGTRLMVKP
Vbeta: DSGVTQTPKHLITATGQRVTLRCSPRSGDLSVYWYQQSLDQGLQFLIQYYNGEERAKGNILERFSAQQFPDLHSELNLSSLELGDSALYFCASSVGRGMNTEAFFGQGTRLTVV
[7]
  binding result: recognises

B14: TCRCD8-53-02-NY #109 (TCR, V domains shown)
Valpha: GQQVMQIPQYQHVQEGEDFTTYCNSSTTLSNIQWYKQRPGGHPVFLIQLVKSGEVKKQKRLTFQFGEAKKNSSLHITATQTTDVGTYFCADNAGNMLTFGGGTRLMVKP
Vbeta: GAVVSQHPSWVICKSGTSVKIECRSLDFQATTMFWYRQFPKQSLMLMATSNEGSKATYEQGVEKDKFLINHASLTLSTLTVTSAHPEDSSFYICSARDPGRNYGYTFGSGTRLTVV
[8]
  binding result: recognises

B15: TCRCD8-53-02-NY #110 (TCR, V domains shown)
Valpha: B14 Valpha with A90G
Vbeta: B14 Vbeta with P99E, G100D, N102P
[8]
  binding result: recognises

B16: TCRCD8-C1-40-MA3 #1 (TCR, V domains shown)
Valpha: GQQLNQSPQSMFIQEGEDVSMNCTSSSIFNTWLWYKQEPGEGPVLLIALYKAGELTSNGRLTAQFGITRKDSFLNISASIPSDVGIYFCAGQLRYGGATNKLIFGTGTLLAVQP
Vbeta: B1 Vbeta with Q48H, L96G, P98A, N99S, T100Y, A102Q, F103Y, Q106P, V113T
[9]
  binding result: recognises

B17: TCRCD8-EL28-NYE #2 (TCR, V domains shown)
Valpha: SQELEQSPQSLIVQEGKNLTINCTSSKTLYGLYWYKQKYGEGLIFLMMLQKGGEEKSHEKITAKLDEKKQQSSLHITASQPSHAGIYLCGADMLDYQKVTFGIGTKLQVIP
Vbeta: DAGVIQSPRHEVTEMGQEVTLRCKPISGHDYLFWYRQTMMRGLELLIYFNNNVPIDDSGMPEDRFSAKMPNASFSTLKIQPSEPRDSAVYFCASRRGGSEQYFGPGTRLTVT
[10]
  binding result: recognises
